T1: LrhCas9-NLS (Lactobacillus rhamnosus)
T1 chain: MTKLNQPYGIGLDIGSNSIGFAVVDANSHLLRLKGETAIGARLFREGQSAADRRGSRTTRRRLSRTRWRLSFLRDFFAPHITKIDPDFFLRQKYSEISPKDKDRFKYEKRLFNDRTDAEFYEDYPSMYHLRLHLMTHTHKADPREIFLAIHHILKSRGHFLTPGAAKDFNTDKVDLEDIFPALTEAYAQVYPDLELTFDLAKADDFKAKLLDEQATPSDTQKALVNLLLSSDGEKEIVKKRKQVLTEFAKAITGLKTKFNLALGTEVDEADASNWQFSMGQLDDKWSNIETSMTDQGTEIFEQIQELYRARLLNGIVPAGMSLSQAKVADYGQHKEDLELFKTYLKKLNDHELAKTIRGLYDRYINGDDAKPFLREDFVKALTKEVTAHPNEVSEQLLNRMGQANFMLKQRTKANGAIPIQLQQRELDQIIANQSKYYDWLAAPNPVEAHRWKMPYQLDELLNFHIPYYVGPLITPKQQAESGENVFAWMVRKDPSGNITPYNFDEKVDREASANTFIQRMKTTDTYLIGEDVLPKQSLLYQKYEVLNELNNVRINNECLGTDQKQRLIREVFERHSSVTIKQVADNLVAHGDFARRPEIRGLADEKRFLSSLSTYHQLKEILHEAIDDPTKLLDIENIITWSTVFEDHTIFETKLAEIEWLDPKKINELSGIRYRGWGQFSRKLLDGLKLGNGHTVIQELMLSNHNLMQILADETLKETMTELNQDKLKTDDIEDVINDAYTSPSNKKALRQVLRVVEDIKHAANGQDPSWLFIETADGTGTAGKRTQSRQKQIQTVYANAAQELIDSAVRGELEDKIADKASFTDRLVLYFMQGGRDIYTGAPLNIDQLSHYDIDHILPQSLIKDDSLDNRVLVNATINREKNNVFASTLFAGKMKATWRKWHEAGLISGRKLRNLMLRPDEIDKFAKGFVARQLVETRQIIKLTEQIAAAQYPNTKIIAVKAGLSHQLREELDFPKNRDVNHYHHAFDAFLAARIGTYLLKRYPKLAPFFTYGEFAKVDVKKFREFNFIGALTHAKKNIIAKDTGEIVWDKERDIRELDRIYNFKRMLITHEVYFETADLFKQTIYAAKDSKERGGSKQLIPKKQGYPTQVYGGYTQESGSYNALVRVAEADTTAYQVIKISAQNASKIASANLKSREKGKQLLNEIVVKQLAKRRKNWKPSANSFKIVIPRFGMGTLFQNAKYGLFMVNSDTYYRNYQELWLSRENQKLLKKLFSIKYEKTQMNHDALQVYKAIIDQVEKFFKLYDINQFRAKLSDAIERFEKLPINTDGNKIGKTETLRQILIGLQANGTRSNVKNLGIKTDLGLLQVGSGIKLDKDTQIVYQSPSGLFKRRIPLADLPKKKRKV

B1: Lrh POR target 1 sgRNA ; POR target 1 (ssRNA ; dsDNA)
RNA: GCUCGUACUGGCGAAUGCUGUCUCAGGUAGAUGUCAGAUCAAUCAGAAAUGAUUGAUCUGACAUCUACGAGUUGAGAUCAAACAAAGCUUCAGCUGAGUUUCAAUUUCUGAGCCCAUGUUGGGCCAUACAUAUGCCACCCGAGUGCAAAUCGGGUGGCUUUUUUU
DNA 1: GCTCGTACTGGCGAATGCTGGAAA
DNA 2: TTTCCAGCATTCGCCAGTACGAGC
B2: Lrh CAR target 2 sgRNA ; CAR target 2 (ssRNA ; dsDNA)
RNA: GUGAGAGUCUCCUCCCCAAUGGUCUCAGGUAGAUGUCAGAUCAAUCAGAAAUGAUUGAUCUGACAUCUACGAGUUGAGAUCAAACAAAGCUUCAGCUGAGUUUCAAUUUCUGAGCCCAUGUUGGGCCAUACAUAUGCCACCCGAGUGCAAAUCGGGUGGCUUUUUUU
DNA 1: GTGAGAGTCTCCTCCCCAATGGGAAA
DNA 2: TTTCCCATTGGGGAGGAGACTCTCAC

Biological target: T1, LrhCas9-NLS
Experiment: cell_activity; PAM NGAAA; K562
Conditions: tags: C-terminal SV40 NLS

Row | Binder | activity
1 | B1 | 26.7 % indel
2 | B2 | 27 % indel

Reference: patent publication US12297449, “Engineered CAS9 systems for eukaryotic genome modification” (Sigma-Aldrich Co. LLC)
